From the supplement of paper PMC10567573 come the findings set out here.

This data set can be described thus: protein stability index of a GFP-peptide fusion (GPS, HEK-293T) (PSI 1-6); higher = more stable. The note with it: c terminus: a fixed tail appended.

± gives the standard deviation.
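Note: 24-mer peptide tiles fused after GFP, lentivirally expressed, FACS-sorted into six equal bins by GFP/DsRed ratio, decoded by Illumina sequencing, PSI is the read-weighted mean bin number.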

STNEITYGLPIMVTLMVAKWTGDF [CLCN6]: the protein stability index reads like this: (treatment: DMSO) 3.16 ± 0.38; (treatment: MLN4924 1 uM, 8 h) 3.03 ± 0.45.

As to STRGAARPAQAIGTQPRATKHKCR [SPACA9], the protein stability index was found to be 5.13 ± 0.098 (treatment: DMSO) and 5.14 ± 0.36 (treatment: MLN4924 1 uM, 8 h).

Sequence STRLTRIHLREDLVQDQDLEAIRK [ZER1] had a protein stability index (treatment: DMSO) of 4.67 ± 0.079 and a protein stability index (treatment: MLN4924 1 uM, 8 h) of 4.7 ± 0.14.

For the sequence SVHFDGETIEGAPPLWAASAAGHL [FEM1A], the protein stability index runs as follows: (treatment: DMSO) 3.42 ± 0.07; (treatment: MLN4924 1 uM, 8 h) 3.47 ± 0.5.

Regarding SWCLKRYDLEYWAFHDGQRSRLRP [TRIM14], the protein stability index reads like this: (treatment: DMSO) 2.18 ± 0.25; (treatment: MLN4924 1 uM, 8 h) 2.33 ± 0.13.

As to SWSIQMRQHHHQSSFPGSLPQETN, the protein stability index was determined as 3.51 ± 0.1 (treatment: DMSO) and 3.53 ± 0.11 (treatment: MLN4924 1 uM, 8 h).

Take SYPRTPHTPGTPKSAILVPSEKKV [MAP2]: the protein stability index (treatment: DMSO) turned out to be 4.6 ± 0.053 and the protein stability index (treatment: MLN4924 1 uM, 8 h) worked out at 4.74 ± 0.26.

For the sequence SYSPASASSGGAGAAVGTGSSYPT [JUNB], the protein stability index reads like this: (treatment: DMSO) 4.41 ± 0.27; (treatment: MLN4924 1 uM, 8 h) 4.61 ± 0.094.

With SYVCRCKQGYILNSDQTTCRIQDL [MATN2], the protein stability index (treatment: DMSO) came out at 2.4 ± 0.31 and the protein stability index (treatment: MLN4924 1 uM, 8 h) was 2.46 ± 0.42.

TAAGGQGGPGGPGSDKQQQQQHIE [NR2F2]: the protein stability index came to 5.34 ± 0.27 (treatment: DMSO) and 5.47 ± 0.19 (treatment: MLN4924 1 uM, 8 h).

On to TDDPTAGRSNAPITAPTEVEVMDE [CSNK1G3], for which the protein stability index reads like this: (treatment: DMSO) 5.67 ± 0.13; (treatment: MLN4924 1 uM, 8 h) 5.51 ± 0.22.

TDGERVAEVAPEERENVAVAKLQE [SDE2] showed a protein stability index (treatment: DMSO) of 5.59 ± 0.34 and a protein stability index (treatment: MLN4924 1 uM, 8 h) of 5.49 ± 0.38.

For the sequence TEDCPTGSALTFREEQCAAYNHRT [ADAMTS4], the protein stability index was 5.09 ± 0.22 (treatment: DMSO) and 5.03 ± 0.12 (treatment: MLN4924 1 uM, 8 h).

On to TEHEKKQKLETDAMFRLEHGEADR [YJU2B], for which the protein stability index reads like this: (treatment: DMSO) 5.32 ± 0.12; (treatment: MLN4924 1 uM, 8 h) 5.46 ± 0.3.

On to TELRLLGRTHSACDALRTLAEARR [RSAD1], for which the protein stability index (treatment: DMSO) is 3.46 ± 0.21 and the protein stability index (treatment: MLN4924 1 uM, 8 h) stood at 3.59 ± 0.18.

For the sequence TEQLWRIFAGVHDEKAKPRDRQQA [TLE6], the protein stability index is, setting by setting: (treatment: DMSO) 3.45 ± 0.26; (treatment: MLN4924 1 uM, 8 h) 3.76 ± 0.23.

Consider TFDGSLFAVFPSLNEEQTLQEVPT [ETS2], for which the protein stability index runs as follows: (treatment: DMSO) 3.69 ± 0.28; (treatment: MLN4924 1 uM, 8 h) 3.57 ± 0.18.

With TFFRLLLPEAPPKKFLTLGSKFRY [EPB41L3], the protein stability index is, setting by setting: (treatment: DMSO) 2.23 ± 0.32; (treatment: MLN4924 1 uM, 8 h) 2.85 ± 1.4.

TFPFKILGDSGLGPWQLNVFVCRV [P2RY14] yielded a protein stability index (treatment: DMSO) of 3.47 ± 0.73 and a protein stability index (treatment: MLN4924 1 uM, 8 h) of 3.26 ± 1.5.

In the case of TFSGDVQLAQDDIDGIQAIYGRSQ [MMP1], the protein stability index worked out at 4.27 ± 0.21 (treatment: DMSO) and 4.55 ± 0.14 (treatment: MLN4924 1 uM, 8 h).

On to TFSLKTVLMIAIQLISRMEYVHSK [CSNK1G3], for which the protein stability index is, setting by setting: (treatment: DMSO) 3.5 ± 0.67; (treatment: MLN4924 1 uM, 8 h) 3.16 ± 0.46.

As to TGEVRTARALLEDDSDTQQVVVLV [PCDHGC5], the protein stability index worked out at 2.5 ± 0.39 (treatment: DMSO) and 2.82 ± 0.27 (treatment: MLN4924 1 uM, 8 h).

For TGFTVNVAWNGPRMGDADYLAAWH [HDAC6], the protein stability index reads like this: (treatment: DMSO) 2.43 ± 0.52; (treatment: MLN4924 1 uM, 8 h) 2.18 ± 0.26.

Take TGIEESTDGMILGPEDLSYQIYDV [LARP4]: the protein stability index is, setting by setting: (treatment: DMSO) 3.76 ± 0.28; (treatment: MLN4924 1 uM, 8 h) 3.6 ± 0.29.

Consider TGILIFAIGVGQVDFNTLKSIGSE [MATN2], for which the protein stability index was determined as 3.69 ± 0.069 (treatment: DMSO) and 3 ± 0.56 (treatment: MLN4924 1 uM, 8 h).

Turning to TGLVGLFVDFFVRLFTQLKFGVVQ [CLCN6], the protein stability index is 2.36 ± 0.36 (treatment: DMSO) and 2.54 ± 0.22 (treatment: MLN4924 1 uM, 8 h).

As to THLLMGLAGGKLILSLEGGYNLRA [HDAC6], the protein stability index is, setting by setting: (treatment: DMSO) 3.08 ± 0.91; (treatment: MLN4924 1 uM, 8 h) 2.91 ± 1.

For the sequence TIIASNAEEAEILHSACGLSKDHQ [TOR1AIP2], the protein stability index was 4.48 ± 0.14 (treatment: DMSO) and 4.54 ± 0.24 (treatment: MLN4924 1 uM, 8 h).

As for TIILQQLLPLRTKVAKLLGYSTHA [NLN], the protein stability index by setting is: (treatment: DMSO) 2.33 ± 0.26; (treatment: MLN4924 1 uM, 8 h) 1.92 ± 0.39.

Turning to TIKVSYARPSSASIRDANLYVSGL [ELAVL3], the protein stability index is, setting by setting: (treatment: DMSO) 2.37 ± 0.076; (treatment: MLN4924 1 uM, 8 h) 2.23 ± 0.3.

For the sequence TINIKCHVHDPHGQVIWGMSWAKL [FBXO39], the protein stability index runs as follows: (treatment: DMSO) 2.84 ± 0.5; (treatment: MLN4924 1 uM, 8 h) 2.67 ± 0.46.

As for TKFDRDGNRILDEKEQEKMRQDLE [PKD2L1], the protein stability index is, setting by setting: (treatment: DMSO) 5.12 ± 0.34; (treatment: MLN4924 1 uM, 8 h) 5.36 ± 0.35.

Regarding TKQNFFSQTPILQALQHVQASCDE [INTS3], the protein stability index is, setting by setting: (treatment: DMSO) 3.95 ± 0.12; (treatment: MLN4924 1 uM, 8 h) 4.16 ± 0.23.

As to TLGELKQNLSRSWHDVQVSSAYVK [TPD52L2], the protein stability index by setting is: (treatment: DMSO) 2.96 ± 0.23; (treatment: MLN4924 1 uM, 8 h) 3.26 ± 0.27.

Take TLGKVLKVIVVMRSLFIDRTIVKG [MED27]: the protein stability index is, setting by setting: (treatment: DMSO) 3.01 ± 0.66; (treatment: MLN4924 1 uM, 8 h) 2.74 ± 0.97.

TLHAVEKLQVRLATKTEPKKLEKY [ELOA2]: the protein stability index runs as follows: (treatment: DMSO) 3.7 ± 0.31; (treatment: MLN4924 1 uM, 8 h) 3.73 ± 0.41.
